In this test the target is T1, Purified human GST-PABPN1 (human, UniProt Q86U42-1 1-306).
T1 sequence (looked up): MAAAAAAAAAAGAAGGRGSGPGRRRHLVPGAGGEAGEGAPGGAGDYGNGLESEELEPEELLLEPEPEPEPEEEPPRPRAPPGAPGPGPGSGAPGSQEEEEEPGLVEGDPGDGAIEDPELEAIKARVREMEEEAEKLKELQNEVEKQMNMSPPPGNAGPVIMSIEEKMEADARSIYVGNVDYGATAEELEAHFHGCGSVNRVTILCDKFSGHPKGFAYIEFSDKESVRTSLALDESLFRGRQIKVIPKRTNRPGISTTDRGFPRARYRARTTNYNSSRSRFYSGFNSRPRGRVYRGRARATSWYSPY
The test is described as follows: peptide or protein array.

Turning to TQIFEDPREFLSHL (peptide, UniProt Q63053 211-224, looked up) [Arc array peptide 211-224], the binding result is on record as “binds”.

Consider QPKFKRFLRHPLPK (peptide, UniProt Q63053 330-343, looked up) [Arc array peptide 330-343], for which the binding result is “binds”.

In the case of LWRKRDLYQTLYVD (peptide, UniProt Q63053 302-315, looked up) [Arc array peptide 302-315], the binding result is “binds”.

The values are drawn from paper doi:10.1101/2024.09.04.610023 (bioRxiv, 2024).
